Reference: publication PMC13071878, “Yeast Display Technology Enables Rapid Discovery of Low-Nanomolar Macrocyclic Peptide Inhibitors of Human Angiotensin-Converting Enzyme 2” (Journal of Medicinal Chemistry, 2026)
pIC50, pKd, pKi: −log10 of the molar value. “And” between values parts separate entries of the source, which are not always exact repeats. Identical values can stand only once. Like-named read-outs stand apart in the source and are kept apart here.

Key:
hACE2 [1] = target: T1, hACE2 (Homo sapiens, UniProt Q9BYF1); set-up: method as in ref 4 (SI list; Huang et al. 2003); settings: phage display DX peptides; ref 4 (SI list; Huang et al. 2003); cited from earlier work
T1 sequence (Q9BYF1 19-615): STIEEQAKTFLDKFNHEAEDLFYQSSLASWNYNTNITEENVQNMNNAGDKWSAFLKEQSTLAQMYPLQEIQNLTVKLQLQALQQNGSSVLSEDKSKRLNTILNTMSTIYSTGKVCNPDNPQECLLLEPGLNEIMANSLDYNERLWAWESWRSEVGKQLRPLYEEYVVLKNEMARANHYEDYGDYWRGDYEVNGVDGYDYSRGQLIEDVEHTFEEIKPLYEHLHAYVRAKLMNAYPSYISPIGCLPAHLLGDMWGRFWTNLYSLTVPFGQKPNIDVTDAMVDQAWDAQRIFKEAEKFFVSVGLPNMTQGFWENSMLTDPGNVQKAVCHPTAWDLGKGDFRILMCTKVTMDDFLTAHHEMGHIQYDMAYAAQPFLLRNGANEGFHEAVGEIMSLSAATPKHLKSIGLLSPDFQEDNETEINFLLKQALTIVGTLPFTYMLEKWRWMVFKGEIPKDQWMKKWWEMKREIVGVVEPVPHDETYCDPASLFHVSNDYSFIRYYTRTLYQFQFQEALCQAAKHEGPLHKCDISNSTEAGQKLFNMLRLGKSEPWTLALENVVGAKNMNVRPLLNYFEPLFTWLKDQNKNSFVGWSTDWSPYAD

hACE2 [2] = target: T1, hACE2; set-up: method as in ref 4 (SI list; Huang et al. 2003); settings: phage display DX peptides, ref 4 (SI list; Huang et al. 2003), cited from earlier work; for pKi: where not reported, calculated by Cheng-Prusoff, Km 23 μM
hACE2 [3] = target: T1, hACE2; test: biochemical
Protocol: The activity assay was performed by incubating 0.25 nM of hACE2 with 50 μM fluorogenic substrate Mca-Ala-Pro-Lys­(Dnp)–OH (MedChemExpress, Monmouth Junction, NJ, USA) and 3-fold MP dilutions (ranging from 0.03 nM to 100 μM). […] All reagents were diluted in 10 mM Tris–HCl, pH 7.4, 300 mM NaCl, 100 μM ZnCl2, 0.1% w/v BSA, and 0.1% v/v DMSO assay buffer. The measurements were performed on a Berthold TriStar LB 941 microplate reader (Berthold Technologies, Bad Wildbad, Germany) using flat-bottom 96-well half area Corning Costar plates (Corning, New York, USA). The enzymatic reactions were performed at 25 °C for 90 min, under shaking with a maximum excitation wavelength (λex) of 320 nm and maximum emission wavelength (λem) of 405 nm. The initial velocities were monitored as changes in fluorescence intensity. Half-maximum inhibitory concentration (IC50) values were determined using GraphPad Prism v8.2.1 software (GraphPad software Inc., San Diego, CA, USA). […] Fluorescence was recorded as described earlier (λex = 320 nm, λem = 405 nm) using a Berthold TriStar LB 941 microplate reader (Berthold Technologies, Bad Wildbad, Germany). Initial velocities (V 0) were plotted against substrate concentrations [S] and analyzed via nonlinear regression using a one-site specific binding model using GraphPad Prism v8.2.1 software (GraphPad software Inc., San Diego, CA, USA). […]

hACE2 [4] = target: T1, hACE2; set-up: method as in ref 2 (SI list; Harman et al. 2023); settings: phage display bicyclic peptides, ref 2 (SI list; Harman et al. 2023), cited from earlier work; for pKi: where not reported, calculated by Cheng-Prusoff, Km 23 μM
hACE2 [5] = target: T1, hACE2; set-up: method as in ref 3 (SI list; Bedding et al. 2024); settings: mRNA display cyclic peptides; ref 3 (SI list; Bedding et al. 2024); cited from earlier work
hACE2 [6] = target: T1, hACE2; set-up: method as in ref 3 (SI list; Bedding et al. 2024); settings: mRNA display cyclic peptides, ref 3 (SI list; Bedding et al. 2024), cited from earlier work; for pKi: where not reported, calculated by Cheng-Prusoff, Km 23 μM
hACE2 [7] = target: T1, hACE2; set-up: method as in ref 2 (SI list; Harman et al. 2023); settings: phage display bicyclic peptides; ref 2 (SI list; Harman et al. 2023); cited from earlier work
hACE2 [8] = target: T1, hACE2; type: binding; settings: yeast-displayed MP, serial dilutions of biotinylated hACE2
hACE1 = target: T2, hACE1 (Homo sapiens, UniProt P12821); test: biochemical
T2 construct: purchased R&D Systems
T2 sequence (P12821 30-1306): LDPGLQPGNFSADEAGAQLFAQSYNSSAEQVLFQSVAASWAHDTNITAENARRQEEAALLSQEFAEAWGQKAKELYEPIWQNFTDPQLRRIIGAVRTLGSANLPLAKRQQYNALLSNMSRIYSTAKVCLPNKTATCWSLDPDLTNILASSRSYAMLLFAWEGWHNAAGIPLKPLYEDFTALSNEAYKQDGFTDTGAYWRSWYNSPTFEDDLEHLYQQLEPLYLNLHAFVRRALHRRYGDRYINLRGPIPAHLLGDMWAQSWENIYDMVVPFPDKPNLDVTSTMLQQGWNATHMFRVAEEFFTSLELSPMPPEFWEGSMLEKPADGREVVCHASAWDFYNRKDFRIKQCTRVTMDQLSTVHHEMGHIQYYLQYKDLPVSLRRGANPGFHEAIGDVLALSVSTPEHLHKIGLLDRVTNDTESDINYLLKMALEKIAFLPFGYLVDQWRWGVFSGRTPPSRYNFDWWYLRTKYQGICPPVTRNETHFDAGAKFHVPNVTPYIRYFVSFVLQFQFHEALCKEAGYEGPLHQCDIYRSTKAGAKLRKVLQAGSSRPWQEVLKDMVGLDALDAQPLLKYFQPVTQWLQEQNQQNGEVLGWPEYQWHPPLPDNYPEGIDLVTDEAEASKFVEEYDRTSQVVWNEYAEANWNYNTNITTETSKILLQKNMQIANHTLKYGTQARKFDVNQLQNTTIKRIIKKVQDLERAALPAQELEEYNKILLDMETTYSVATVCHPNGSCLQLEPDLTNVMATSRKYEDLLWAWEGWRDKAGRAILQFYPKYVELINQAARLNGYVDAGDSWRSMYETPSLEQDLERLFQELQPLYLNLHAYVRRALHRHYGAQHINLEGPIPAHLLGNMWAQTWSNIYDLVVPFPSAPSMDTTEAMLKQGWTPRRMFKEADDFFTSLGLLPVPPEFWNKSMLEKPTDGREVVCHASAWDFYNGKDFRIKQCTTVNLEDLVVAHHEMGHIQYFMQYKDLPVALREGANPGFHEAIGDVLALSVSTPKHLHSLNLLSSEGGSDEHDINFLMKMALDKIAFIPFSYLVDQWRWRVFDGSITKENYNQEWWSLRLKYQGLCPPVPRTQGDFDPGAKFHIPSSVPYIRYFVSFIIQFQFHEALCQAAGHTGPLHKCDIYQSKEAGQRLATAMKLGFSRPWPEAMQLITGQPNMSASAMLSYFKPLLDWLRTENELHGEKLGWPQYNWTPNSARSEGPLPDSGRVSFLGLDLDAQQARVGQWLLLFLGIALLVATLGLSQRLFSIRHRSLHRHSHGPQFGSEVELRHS
Protocol: The activity assay was performed by incubating 0.25 nM of hACE2 with 50 μM fluorogenic substrate Mca-Ala-Pro-Lys­(Dnp)–OH (MedChemExpress, Monmouth Junction, NJ, USA) and 3-fold MP dilutions (ranging from 0.03 nM to 100 μM). […] All reagents were diluted in 10 mM Tris–HCl, pH 7.4, 300 mM NaCl, 100 μM ZnCl2, 0.1% w/v BSA, and 0.1% v/v DMSO assay buffer. The measurements were performed on a Berthold TriStar LB 941 microplate reader (Berthold Technologies, Bad Wildbad, Germany) using flat-bottom 96-well half area Corning Costar plates (Corning, New York, USA). The enzymatic reactions were performed at 25 °C for 90 min, under shaking with a maximum excitation wavelength (λex) of 320 nm and maximum emission wavelength (λem) of 405 nm. The initial velocities were monitored as changes in fluorescence intensity. Half-maximum inhibitory concentration (IC50) values were determined using GraphPad Prism v8.2.1 software (GraphPad software Inc., San Diego, CA, USA). […] Reactions were initiated by adding hACE2 (final concentration 0.25 nM) to the fluorogenic substrate in assay buffer at 25 °C. Fluorescence was recorded as described earlier (λex = 320 nm, λem = 405 nm) using a Berthold TriStar LB 941 microplate reader (Berthold Technologies, Bad Wildbad, Germany). Initial velocities (V 0) were plotted against substrate concentrations [S] and analyzed via nonlinear regression using a one-site specific binding model using GraphPad Prism v8.2.1 software (GraphPad software Inc., San Diego, CA, USA). […] All reagents were diluted in 10 mM Tris-HCl, pH 7.4, 300 mM NaCl, 100 μM ZnCl2, 0.1% w/v BSA, and 0.1% v/v DMSO buffer. Measurements and data analysis were performed as mentioned above.

[9] = Plasma stability of synthetic peptides (LC-MS); settings: human, plasma, plasma half-life t1/2, human plasma, 37 °C, 10 μM, LC-MS, n = 2
Protocol: The mixtures were incubated at 37 °C in a water bath (VWR, Pennsylvania, PA, USA). At designated time points (0, 0.25, 0.5, 1, 2, 4, 8, 24, and 48 h), 100 μL aliquots were withdrawn and quenched with 100 μL of 100% v/v ACN. Following centrifugation (10 min at 15000 g, 4 °C), 100 μL of the supernatant was collected and diluted with 50 μL of solvent A (99.9% v/v H2O and 0.1% v/v FA). Samples were characterized by LC–MS using an Agilent 1260 Infinity II LC system coupled to an InfinityLab LC/MSD mass spectrometer (Agilent Technologies, Santa Clara, CA, USA). The system operated with a standard ESI source in negative ionization mode. Separation was performed on a reversed-phase Symmetry C18 column (5 μm, 150 mm × 4.6 mm, Waters, Milford, MA, USA) using a linear gradient of 10–100% solvent B over 22 min at a flow rate of 0.6 mL/min (Solvent A: 99.9% v/v H2O and 0.1% v/v FA; Solvent B: 99.9% v/v ACN and 0.1% v/v FA). Data acquisition, processing, and analysis were performed using MestReNova v.12.0.1 (Mestrelab Research, Santiago de Compostela, Spain). All samples were analyzed in duplicate (n = 2). The percentage of remaining peptide was calculated by integrating the peak areas, with the area at 0 h defined as 100%. Half-lives (t 1/2) were determined via nonlinear regression analysis using GraphPad Prism (GraphPad software Inc., San Diego, CA, USA). Data are presented as mean values ± s.d.

hACE2 [10] = target: T1, hACE2; test: Isothermal titration calorimetry of synthetic MPs with hACE2; type: binding; settings: 25 °C
Protocol: Isothermal titration calorimetry (ITC) experiments were performed at 25 °C using a MicroCal iTC200 instrument ([…], Malvern Panalytical, Malvern, UK). The hACE2 protein (initial stock 11 mg/mL, 20 mM Tris pH 7.4, 200 mM NaCl) was diluted into the assay buffer (100 mM Tris pH 7.4, 200 mM NaCl) to a final concentration of 5 μM. […] Titrations consisted of an initial 0.4 μL injection (excluded from subsequent data analysis), followed by 18 injections of 2 μL each, with a stirring rate of 750 rpm to ensure rapid mixing. A 120 s interval was maintained between injections to ensure the baseline returned to equilibrium. Blank experiments involving the titration of the synthetic MPs into the assay buffer were performed to determine and subtract the heats of dilution. Data processing was conducted using the Origin software package version 7 (OriginLab Corporation, Northampton, MA, USA). The integrated heat signals were fitted to a single-site binding model to determine the association constant (K A), the dissociation constant ([…]), the enthalpy change (ΔH), and the binding stoichiometry (n). The Gibbs free energy (ΔG) and the entropy change (ΔS) were calculated using the standard thermodynamic relationship: ΔG=ΔH−TΔS=−RTln(KA)

Compound: GDFSPCKALRHSPWWVCPSGDP [DX602]
- pKd (hACE2 [1]): 7.13
- pIC50 (hACE2 [2]): 6.89
- pKi (hACE2 [2]): 6.92

Compound: CC(C)C[C@@H]1NC(=O)[C@H](Cc2ccccc2)NC(=O)[C@@H](NC(=O)[C@H](C)N)CSSC[C@@H]2NC(=O)[C@H](CCCCN)NC(=O)[C@H](C(C)C)NC(=O)[C@H](CC(=O)O)NC(=O)[C@H](CCCNC(=N)N)NC(=O)[C@H](Cc3c[nH]cn3)NC(=O)[C@H](CSSC[C@@H](C(=O)N[C@@H](CO)C(=O)NCC(N)=O)NC(=O)[C@H](Cc3c[nH]c4ccccc34)NC(=O)[C@H](CC(C)C)NC(=O)[C@H](Cc3c[nH]c4ccccc34)NC2=O)NC(=O)[C@H](CCCNC(=N)N)NC1=O [GR3.1.3]
- pKi (hACE2 [3]): 5.98

Compound: ACGREELPCRIKLCA [BCY15298]
- pIC50 (hACE2 [4]): < 4.40

Compound: Y*AVLLHKGKFVFTYGC [peptide12]
- pKd (hACE2 [5]): 6.21
- pIC50 (hACE2 [6]): 4.40
- pKi (hACE2 [6]): 5.13

Compound: ACVRSHCSSLLPRIHCA [BCY15291]
- pKd (hACE2 [7]): 9.40 and 9.36
- pIC50 (hACE2 [4]): 8.70
- pKi (hACE2 [4]): 9.05

Compound: GDRLHCKPQRQSPWMKCQHLDP [DX512]
- pKd (hACE2 [1]): 7.02
- pIC50 (hACE2 [2]): 7.22
- pKi (hACE2 [2]): 6.86

Compound: ACEPAGYNLFLCSG [GR1.6]
- binding to hACE2 in yeast surface titration (in words) (hACE2 [8]): completely abolished

Compound: GDGFTCSPIRMFPWFRCDLGDP [DX601]
- pKd (hACE2 [1]): 7.25
- pIC50 (hACE2 [2]): 7.25
- pKi (hACE2 [2]): 7.51

Compound: y*ARPLRHRPWYVSWC [peptide6]
- pKd (hACE2 [5]): 8.48

Compound: Y*VKRNVYEGYKPC [peptide15]
- pKd (hACE2 [5]): 8.14

Compound: ACEPLGFNRWICSG [GR1.3, yeast-encoded “one-ring” macrocyclic peptide, GR1 family]
- binding to hACE2 in yeast surface titration (in words) (hACE2 [8]): comparable binding affinities

Compound: AGSDWCGTWNNPCFHQGT [DX531]
- pIC50 (hACE2 [2]): 6.30
- pKi (hACE2 [2]): 6.27

Compound: y*FNRSGKLLFLYC [peptide4]
- pKd (hACE2 [5]): 6.62

Compound: y*VHIIYWKNGLPRITC [peptide14]
- pKd (hACE2 [5]): 7.08
- pIC50 (hACE2 [6]): 5.01
- pKi (hACE2 [6]): 5.74

Compound: GDRYLCLPQRDKPWKFCNWFDP [DX599]
- pKd (hACE2 [1]): 7.31
- pIC50 (hACE2 [2]): 6.94
- pKi (hACE2 [2]): 7.33

Compound: AGQKECKFGYPHCLPWGT [DX530]
- pIC50 (hACE2 [2]): 4.52

Compound: y*SYQYRGRFHRQC [peptide19]
- pKd (hACE2 [5]): 7.11

Compound: ACEPLAYNLFLCSG [GR1.7]
- binding to hACE2 in yeast surface titration (in words) (hACE2 [8]): completely abolished

Compound: y*VQRPIRNVRLIRC [peptide24]
- pKd (hACE2 [5]): 6.37

Compound: y*TYQYRDRFFRPC [peptide22]
- pKd (hACE2 [5]): 7.83

Compound: GDLHACRPVRGDPWWACTLGDP [DX513]
- pKd (hACE2 [1]): 6.77
- pIC50 (hACE2 [2]): 7.05
- pKi (hACE2 [2]): 6.90

Compound: Y*VLSSPRGALRALRC [peptide3]
- pKd (hACE2 [5]): 6.54

Compound: ACEPLGYALFLCSG [GR1.9]
- binding to hACE2 in yeast surface titration (in words) (hACE2 [8]): significantly attenuated

Compound: y*LSVNRVFAYRIIYKC [peptide23]
- pKd (hACE2 [5]): 8.04

Compound: y*IRQFTSRVPLHC [peptide21]
- pKd (hACE2 [5]): 8.44

Compound: ACTRPWCHSLLPRATCA [BCY15293]
- pKd (hACE2 [7]): 8.80
- pIC50 (hACE2 [4]): 8.31
- pKi (hACE2 [4]): 8.66

Compound: GSRIGCRDSRCNWWAP [DX524]
- pIC50 (hACE2 [2]): 6.22
- pKi (hACE2 [2]): 6.27

Compound: ACHRDFPRCTWETQWCA [BCY15297]
- pKd (hACE2 [7]): 4.96
- pIC50 (hACE2 [4]): 4.92
- pKi (hACE2 [4]): 5.28

Compound: ACGRQFCHTLMPRHLCA [BCY15292]
- pKd (hACE2 [7]): 8.92
- pIC50 (hACE2 [4]): 8.59
- pKi (hACE2 [4]): 8.92

Compound: Y*FQRSVRLPYLRC [peptide2]
- pKd (hACE2 [5]): 10.40

Compound: y*VVLRPLRDLGRVFC [peptide5]
- pKd (hACE2 [5]): 8.05

Compound: CC(=O)NCC(=O)N[C@@H](CC(=O)O)C(=O)N[C@@H](Cc1ccc(O)cc1)C(=O)N[C@@H](CO)C(=O)N[C@@H](Cc1cnc[nH]1)C(=O)N[C@H]1CSSC[C@@H](C(=O)N[C@H](C(=O)N[C@@H](Cc2ccc(O)cc2)C(=O)N2CCC[C@H]2C(=O)N[C@@H](CC(=O)O)C(=O)N2CCC[C@H]2C(=O)N[C@@H](CCC(=O)O)C(=O)NCC(=O)NCC(=O)NCC(N)=O)[C@@H](C)O)NC(=O)[C@H](CCCCN)NC(=O)[C@H](Cc2c[nH]c3ccccc23)NC(=O)[C@H](Cc2c[nH]c3ccccc23)NC(=O)[C@@H]2CCCN2C(=O)[C@H](Cc2ccc(O)cc2)NC(=O)[C@H](Cc2ccc(O)cc2)NC(=O)[C@H](CCCNC(=N)N)NC(=O)[C@H](CC(C)C)NC(=O)[C@@H]2CCCN2C(=O)[C@H](CO)NC1=O [DX600]
- pIC50 (hACE1): < 4.00

Compound: GSRGFCRDSSCSFPAP [DX525]
- pIC50 (hACE2 [2]): 6.00
- pKi (hACE2 [2]): 5.77

Compound: CC[C@H](C)[C@@H]1NC(=O)[C@H](Cc2ccccc2)NC(=O)[C@H](Cc2ccccc2)NC(=O)[C@@H](NC(=O)[C@H](C)N)CSSC[C@@H](C(=O)N[C@@H](CO)C(=O)NCC(N)=O)NC(=O)[C@H]([C@@H](C)CC)NC(=O)[C@H](Cc2c[nH]c3ccccc23)NC(=O)[C@H](CCCNC(=N)N)NC(=O)[C@H](CC(N)=O)NC(=O)[C@H](Cc2ccccc2)NC(=O)CNC1=O [GR1.1]
- pIC50 (hACE1): < 4.00
- pKi (hACE1): < 4.00
- half-life [9]: 5.4 h

Compound: Y*VFRSLRTPFIVC [peptide1]
- pKd (hACE2 [5]): 9.40

Compound: ACEPLGANLFLCSG [GR1.8]
- binding to hACE2 in yeast surface titration (in words) (hACE2 [8]): completely abolished

Compound: y*RLHRSPWAHFGFAC [peptide20]
- pKd (hACE2 [5]): 6.64
- pIC50 (hACE2 [6]): 5.70
- pKi (hACE2 [6]): 6.43

Compound: Y*WTLFVFRDGVLPVWSC [peptide9]
- pKd (hACE2 [5]): 7.30
- pIC50 (hACE2 [6]): 5.69
- pKi (hACE2 [6]): 6.42

Compound: ACHKFPCRDPQQYLFCA [BCY15296]
- pKd (hACE2 [7]): 7.54
- pIC50 (hACE2 [4]): 7.33
- pKi (hACE2 [4]): 7.68

Compound: AGWEVCHWAPMMCKHGGT [DX529]
- pIC50 (hACE2 [2]): 6.40
- pKi (hACE2 [2]): 6.42

Compound: y*DAYTRRTHRNPRLCQC [peptide7]
- pKd (hACE2 [5]): 7.49

Compound: ACLRSYNLCPRINCA [BCY15294]
- pKd (hACE2 [7]): 6.07
- pIC50 (hACE2 [4]): 5.62
- pKi (hACE2 [4]): 5.96

Compound: CC(C)C[C@@H]1NC(=O)[C@H](CC(N)=O)NC(=O)[C@H](Cc2ccc(O)cc2)NC(=O)CNC(=O)[C@H](CC(C)C)NC(=O)[C@@H]2CCCN2C(=O)[C@H](CCC(=O)O)NC(=O)[C@@H](NC(=O)[C@H](C)N)CSSC[C@@H](C(=O)N[C@@H](CO)C(=O)NCC(N)=O)NC(=O)[C@H](CC(C)C)NC(=O)[C@H](Cc2ccccc2)NC1=O [GR1.4]
- pIC50 (hACE1): < 4.00
- pKi (hACE1): < 4.00
- ΔH (ITC) (hACE2 [10]): -8.01 ± 0.12 kcal/mol
- -TΔS (ITC) (hACE2 [10]; calculated): -1.94 kcal/mol
- half-life [9]: 6.5 h
